experiment: soluble on expression in E. coli; label from the status in PepcDB or PDB records

Sequence	soluble on expression in E. coli
MGSVAARDYVGIATKYAEAAVADKGRKRHGRWIRLAAKRFLDDLKRARRRGTPFFFDEWHANDACDFIEKLPHVEGKWETPTIVMHPSHVFFVVQLFGFRRRDAIKVEGWGDDDTFHPRRFTSALFAVARKNAKSTLASAILLYCLCCEPEEGAQVISAATTFDQASIIFRASKRMVEKTPDLAEAFGLATWAKSISRFETGSSYKAVHAKASTQDGLNPSHTGLDEIHAHKTADLLNVLQSAAGARANPLWLFTTTEGYTNAGPWAEIRGFVFALLRGVLGTQADHFLALFYALDNEDKSAKITQDDEFDESKWIKANPLLDVNPHLKAAIRKEAVEAKQMPSKLAEFRIKRCNRPASTASGWVDLTKWAKCGGAVDLDWLAGYPCWGGLDLASTTDIAAFRLLWLVEGVWYTHGWRWVPSEAVKQRTERATVPYAGWVEAGYLLQTEGDVTDYSVIERDILAAVQRFDPQQIAYDAWNAADLVNRLVAASVPMVQFVQGTKSYHPAMQALELAYVGGKLVHGGDPVLAWCASNLVARRDVNLSMAPDRKRSADKIDDMAALLMAMGLAVASDDAEDLSDFFNNAVIGLEHHHHHH	soluble
MGSVSKANVPKIDVSPLFGDDQAAKMRVAQQIDAASRDTGFFYAVNHGINVQRLSQKTKEFHMSITPEEKWDLAIRAYNKEHQDQVRAGYYLSIPGKKAVESFCYLNPNFTPDHPRIQAKTPTHEVNVWPDETKHPGFQDFAEQYYWDVFGLSSALLKGYALALGKEENFFARHFKPDDTLASVVLIRYPYLDPYPEAAIKTAADGTKLSFEWHEDVSLITVLYQSNVQNLQVETAAGYQDIEADDTGYLINCGSYMAHLTNNYYKAPIHRVKWVNAERQSLPFFVNLGYDSVIDPFDPREPNGKSDREPLSYGDYLQNGLVSLINKNGQT	soluble
MGTFTLHQGQTNLIKSFFRNYYLNAELELPKDMELREFALQPFGSDTYVRHLSFSSSEELRDYLVNRNLPLHLFYSSARYQLPSARNMEEKAWMGSDLLFDIDADHLCKLRSIRFCPVCGNAVVSEKCERDNVETLEYVEMTSECIKRGLEQTRNLVEILEDDFGLKPKVYFSGNRGFHVQVDCYGNCALLDSDERKEIAEYVMGIGVPGYPGGSENAPGWVGRKNRGINGVTIDEQVTIDVKRLIRIPNSLHGKSGLIVKRVPNLDDFEFNETLSPFTGYTIFLPYITIETEVLGSIIKLNRGIPIKIKSSIGIYLHLRNLGEVKAYVR	soluble
MGTIPASTYYPTHFMRGTQLNVANGNIKKVEDLSSDDFLRCAAESDDVIVNASVIKSIKSTAGSVTIIFETGIEKQLIPLKCQVEHPFFVLGKGWCSCNPRKSGENYGLDCEILQVDDVCIVLTRNEDKITDCAVDIVTAERDLELFSQRAALKEQLVDVYYERVSGRVSAPPERVLVTFSNEHRERRISE	not soluble
MGTLLATRLKNRRKELKMSQRELAEGICKQGQISRLESGEFTPGADFLHALAKKLKVSMDYFFDEQVVEEVNELSEFKKLAQTFITNRNYESLKYIYELENVKAHRLSLADKFYMEWIKSLIDFYFYGQKEEAITRLENMLPQLNVSDLNYLQVSNTLFNFYYDIEDLERFNEIRDKLEHQVNQLNLNTIEELELSIKFNYNVCRYLWLQKNIEEAITKITATIKQCKEYRTTYLLADLYLLMGSVSENFSSKSSVKEYFETAHFLYKLEENMSMALKVEHYFADITE	not soluble
MGTWPLTVTKEMEKRKELFRRDPNRALIGAGGYKAADEAIVHDAAIALALGKNVLLKGPTGSGKTRLAETLSALFGQPMHSINCSVDLDAEALLGFKTIVHKNSQAVIEYVPGPVIQAMTKGHLLYIDEINMAKPETLPILNSVLDYRRRLTNPLTGDIVQAKQTFGVIAAINEGYIGTVPLNEALKNRFVVINVPYVQGETLKSVLLAQTTLTDETLIDRFVALSADLLAQVRNGQIAEEAASVRALLDACDLAAYMPPLRAIERSIVDKLDDERERAAVRNIAETWFDE	not soluble
MGVCRICGLSLDEISDSIGVCLECLRKGNLDFARKAHRKWREEIGLPVERWAREEGKVCFLCVNSCVIPEGKTGFCGVLRNEGGRLSYITGSHRKAFLHWYYDPHPTNCVALPICPEREHRGFYNFAVFFAGCNLDCLFCQNIDHKYMVKDGRISEGKIVDIDELVEIAMKPRVSCVCFFGGDPTPWTVFALEFAVKLGNRRRICWETNGLAHPRIMERMARVSLESGGIVKIDWKAFSPEVYEALTGVDGKSAVRRIMENVQLVSSMGKGREIPLLVISVLVIPHYIDEKEIEGIAGFISSVDPEIPLVLLAFAPQHLMSDLPTTRKHHMERVKQKALEKGLKRVFVENVWLLS	not soluble
MGVVNVPSNGREKFKKNWKFCVGTGRLGLALQKEYLDHLKLVQEKIGFRYIRGHGLLSDDVGIYREVEIDGEMKPFYNFTYIDRIVDSYLALNIRPFIEFGFMPKALASGDQTVFYWKGNVTPPKDYNKWRDLIVAVVSHFIERYGIEEVRTWLFEVWNEPNLVNFWKDANKQEYFKLYEVTARAVKSVDPHLQVGGPAICGGSDEWITDFLHFCAERRVPVDFVSRHAYTSKAPHKKTFEYYYQELEPPEDMLEQFKTVRALIRQSPFPHLPLHITEYNTSYSPINPVHDTALNAAYIARILSEGGDYVDSFSYWTFSDVFEEMDVPKALFHGGFGLVALHSIPKPTFHAFTFFNALGDELLYRDGEMIVTRRKDGSIAAVLWNLVMEKGEGLTKEVQLVIPVSESAVFIKRQIVNEQYGNAWRVWKQMGRPRFPSRQAVETLRQVAQPHVMTEQRRATDGVIHLSIVLSKNEVTLIEIEQVRDETSTYVGLDDGEITSYSS	soluble
MGYKELLLECQKLLNEGDFEGMIKKLEELSKMEPSSKEEAEESLKLLDFLIEEVKKRQEEIFNKMVNYQKFKNYLR	not soluble
MHAVHQLHQYRKSLSTTTYKSRGQRVIRCQLCQLAKPFCICEISPLKENVETTAGFLLLMYDTEVLKPSNTGKLIADLIPDTFAFLWSRTQENPDLLAVINDEKWFPLVVFPQEYADDERKVFTNNVICPEGKRPLFIMLDGSWREAKKMFRKSPYLDRFPMVSFDVKTAIQAVSGNCQSENNSQLSPVGQDSRYTVRKTELEHQFSTAEVAARVLDMHGETTNAHMLDLWFDVFNFQYQKGVCQRNKGNVNAIENYQSFLAKTYRLEHHHHHH	not soluble
MHELFHPIFANGEEKAALQQLIIALDASGKRYFLRNEILHTFSQYCQQAQKPTYFYYSSSVGKLIQYTHEIVLAEDGTWFVVRPRIASQEVWRLTSDLAKFDSMSIDAFLDVSDRLVNAYEPNILEIDLNSFYEASPSISDPRNIGQGLAFLNRYLCSQIATDPQYWVELVYLALRGLQYDGINLMIGDAIPSGIHLAKQIHAAIKFLSALPPEEPYEKFYIELQKLGFEPGWGNTAQRILETITLLDKLIDSPQPAVLEAFVARVPAVFRVVLVSIHGWVAQEDVMGRDETLGQVIYVLEQARSLENKLQQEIKLAGLEVLGIQPHVIILTRLIPNCEGTYCNLRLEKLHNTENAWILRVPFGEFNPEITNNWISKFEIWPYLETFALDAEKQLLAQFQGKPNLIIGNYSDGNLVAFLLARRLKVTHCNIAHSLEKPKNLFSNLYWQDSEEKYHFSVQFTADLITMNAADFIITSSYQEIFGTPESIGQYESYKFFTMPHLYHVVDGIDLFNPKFNMVPPGVNEQVFFPYSQTADRDPNVSKHVHDLLEHHHHHH	not soluble
MHHFSTGSSSAIIASSSSSSSSSNGYGHSPRDLLTGAAVANGGGGGFGGVAGVAFATTSPPTPVNLDVQRIDCTDETTVVMVKLTDEMFAALQESQRSGKPLRINVNDKEGRVEIGDGTASSKTNNTFYFQKQTVPEQTDTLVHSGGGVRNVGTYKTKYQIQATDRSFQETKKRAELRAEVEKSRGTKQMKKSGVTSSSSRYHNSSNSTPRSMNSAPNSSRVSPSFMSSSSSKASTSHVTTNNSKGTPNNGSESKKIDMTPQLMKHSIKKRIIHLIVTQKYSNWEEVYKKLKSDGLPEEKDEIEKIRSCVEEVSETRPEMSVMSLRTSFLSEVDQRWMFFNQEEKSHVRRLCNSGSRVGPTDNNFAPLRKKGMERITASSKTEKDKVKEKLEEAAKIPSPPKDQKSLPSIVEEDDYYTAPPEPANKRRAHNLAPPPPPPVQVVTPQTTSSQTETGPLPPKRTKRPESSSPQLERSSQPASKLNPIKLAATIAMQPIPKCDPPPPPPSRDTYHHNVASVAVNGGGSTASSRVSSPASSLSSPSQPSCNWEKQFGDIKTLSEAEAYFKQFHKEYPLYMECHEMLTKVSSEFRGLEVKLLTAVALSKTSPSPQNMQNVKQIEKNIQNRYAHFEKDPEFMKARQRHTDLRSKLNVLKTRIGSWEKMRRQSSTNV	soluble
MHHHHHHGGGGGMINKPNQFVNHLSALKKHFASYKELREAFNDYHKHNGDELTTFFLHQFDKVMELVKQKDFKTAQSRCEEELAAPYLPKPLVSFFQSLLQLVNHDLLEQQNAALASLPAAKIIELVLQDYPNKLNMIHYLLPKTKAFVKPHLLQRLQFVLTDSELLELKRFSFFQALNQIPGFQGEQVEYFNSKLKQKFTLTLGEFEIAQQPDAKAYFEQLITQIQQLFLKEPVNAEFANEIIDAFLVSYFPLHPPVPLAQLAAKIYEYVSQIVLNEAVNLKDELIKLIVHTLYEQLDRPVGDEN	soluble
MHHHHHHGKPIPNPLLGLDSTENLYFQGIDPFTEFMDSTDLFDVFEETPVELPTDSNGEKNADTNVGDTPDHTQDKKHGLEEEKEEHEENNSENKKIKSNKSKTEDKNKKVVVPVLADSFEQEASREVDASKGLTNSETLQVEQDGKVRLSHQVRHQVALPPNYDYTPIAEHKRVNEARTYPFTLDPFQDTAISCIDRGESVLVSAHTSAGKTVVAEYAIAQSLKNKQRVIYTSPIKALSNQKYRELLAEFGDVGLMTGDITINPDAGCLVMTTEILRSMLYRGSEVMREVAWVIFDEVHYMRDKERGVVWEETIILLPDKVRYVFLSATIPNAMEFAEWICKIHSQPCHIVYTNFRPTPLQHYLFPAHGDGIYLVVDEKSTFREENFQKAMASISNQIGDDPNSTDSRGKKGQTYKGGSAKGDAKGDIYKIVKMIWKKKYNPVIVFSFSKRDCEELALKMSKLDFNSDDEKEALTKIFNNAIALLPETDRELPQIKHILPLLRRGIGIHHSGLLPILKEVIEILFQEGFLKVLFATETFSIGLNMPAKTVVFTSVRKWDGQQFRWVSGGEYIQMSGRAGRRGLDDRGIVIMMIDEKMEPQVAKGMVKGQADRLDSAFHLGYNMILNLMRVEGISPEFMLEHSFFQFQNVISVPVMEKKLAELKKDFDGIEVEDEENVKEYHEIEQAIKGYREDVRQVVTHPANALSFLQPGRLVEISVNGKDNYGWGAVVDFAKRINKRNPSAVYTDHESYIVNVVVNTMYIDSPVNLLKPFNPTLPEGIRPAEEGEKSICAVIPITLDSIKSIGNLRLYMPKDIRASGQKETVGKSLREVNRRFPDGIPVLDPVKNMKIEDEDFLKLMKKIDVLNTKLSSNPLTNSMRLEELYGKYSRKHDLHEDMKQLKRKISESQAVIQLDDLRRRKRVLRRLGFCTPNDIIELKGRVACEISSGDELLLTELIFNGNFNELKPEQAAALLSCFAFQERCKEAPRLKPELAEPLKAMREIAAKIAKIMKDSKIEVVEKDYVESFRHELMEVVYEWCRGATFTQICKMTDVYEGSLIRMFKRLEELVKELVDVANTIGNSSLKEKMEAVLKLIHRDIVSAGSLYL	soluble
MHHHHHHGSACFAKGTNVLMADGSIECIENIEVGNKVMGKDGRPREVIKLPRGSETMYSVVQKSQHRAHKSDSSREMPELLKFTCNATHELVVRTPRSVRRLSRTIKGVEYFEVITFEMGQKKAPDGRIVELVKEVSKSYPVSEGPERANELVESYRKASNKAYFEWTIEARDLSLLGSHVRKATYQTYAPIGAAFARECRGFYFELQELKEDDYYGITLSDDSDHQFLLANQVVVH	soluble
